Experimental data as given in patent US7052906.

Legend:
[1] = biological target: CD33 on HL60 cells (UniProt P20138); assay: cell-based or functional assay
[2] = biological target: soluble CD33 (UniProt P20138); assay: cell-based or functional assay

| IL-2 production, cell surface-expressed antigen with respect to soluble antigen [1] | IL-2 production, change against the CD28 transmembrane receptor (fold increase) [1] | IL-2 production, change against the CD28 transmembrane receptor (fold decrease) [2] | Substance |
| --- | --- | --- | --- |
| > 2 fold deficit |  |  | P67scFv/h.CD28/CD28Tm/TCRζ receptor (from UniProt P10747 118-134; P10747 135-161; P20963 31-142) |
| 5 fold excess | > 5 | < 3 | P67scFv/h.CD28/Tm31/FcRγ chimeric receptor (from UniProt P10747 118-134; P30273 45-86) |
| 5 fold excess | > 5 | < 3 | P67scFv/h.CD28/Tm24/FcRγ chimeric receptor (from UniProt P10747 118-134; P30273 45-86) |
| 3 fold deficit |  |  | P67scFv/h.CD28/CD28Tm/FcRγ chimeric receptor (from UniProt P10747 118-134; P10747 135-161; P30273 45-86) |
| 2 fold excess |  |  | P67scFv/h.CD28/Tm24/TCRζ chimeric receptor (from UniProt P10747 118-134; P20963 31-142) |
